Laboratory results as given in the nanobody polyreactivity screen of Harvey et al. (2022).

Test: yeast display, Sf9 membrane polyspecificity reagent, FACS + sequencing; frameworks hold sequencing errors
Summary of the method: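 After 36–48 hours of galactose induction, yeast (Saccharomyces cerevisiae BJ5465) displaying a synthetic nanobody library were stained at 4 °C for 1 hour with 10% biotinylated, detergent-solubilized Sf9 membrane reagent. Streptavidin microbeads enriched the stained cells before FACS sorting into low and high (top ~1%) gates on anti-HA and streptavidin fluorescence. Each clone's polyreactivity label reflects its gate of origin.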

Row | Sequence | polyreactivity (PSR sort gate)
1 | QVQLVESGGGLVQAGGSLRLSCAASGRIFKYYAMGWYRQAPGKERELVSTISRGGGSTFYADSVKGRFTISRDNAKNTVYLQMNSLKPEDTAVYYCAVDVTFKRWYSTASSTHDYWGQGTQVTVSS | high polyreactivity
2 | QVQHVESGGGLVQAGGSLRLSCAASGIIFGTNALGWYRQAPGKERELVAYITSGGSTYADSVKGRFTISRDNAKNTVYLQMNSLKPEDTAVYYCAAYVFWAFYEYDYWGQGTQVTVSS | low polyreactivity
3 | QVQLVESGGGLVQAGGSLRLSCAASGRTFRPYAMGLYRQEPGKERELVAAITSGGSTYYADSVKGRLTFSRDNAKYTVYLQMNSLKTEDTAVYYCNAKYYYQPPYDYWVQGTQVTVSS | low polyreactivity
4 | QVQLVESGGGLVQAGGSLRLSCAASGLILSGYTMGWYRPAPGKERELVAAISRSGGRTYYADSVKGRFTISRDNAKNTVYLQMNSLKPEDTAVYYCAAAKRTWRSDYWGQGTQVTVSS | high polyreactivity
5 | QVQLVESGGGLVQAGGSLRLSCAASGSTFDYYAMGWYREAPGKERELVAGITSDGSTYYADSVKGRFTISRDNAKNTVYLQMNSLKPEDTAVYYCNKAPYHWPYEYWGQGTQVTVSS | low polyreactivity
6 | QVQLVESGGGLVQEGGSLRLSCAASGSTFVHYDMGWYRQAPGKERELVAGITDTDNHELRRLCEGRFTISRDKAKNTVYLQMNSLKPEDTAVYYCNADDTYYPLGGITGYDYWGQGTQVTVSS | low polyreactivity
7 | QVQLVESGGGLVQAGGSLRLSCAASGRIFAYKAMGWYRQEPGKERELVAAISWSGSSTYYADSVKGRFTISRDNAKNTVYLQMNSLKPEDTAVYYCAATPWYYYSTSYAYYFWGQGTQVTVSS | high polyreactivity
8 | QVQLVESGGGLVQAGGSLRLSCAASGSTFRGYAKGWNRQAPGKERELVAAISSRGARTHYADSVKGRFTISRDNAKNTVYLQMNSLKPEDTAVYYCAVGSPYYDGMDYWGQGTQVTVSS | low polyreactivity
9 | QVQLVESGGGLVQAGGSLRLSCAASGSTFTTYAMGWYRQSPGKERELVAVITDSGGTYYADSVKGRFTISRDNAKNTVYLQMNSLKPEDTAVYYCNRVFPPTDYEFDSWGQGTQVTVSS | low polyreactivity
10 | QVQLVESGGGLVQAGGSLRLSCAASGSIFLQNAMGWYRQAPGKERELVARITTSGGSTYYADSVKGRFTISRDNAKNTVYLPMNSQKPEDTAVYYCAVRSRRQRGGIRGFDYGGQGTQVTVSS | high polyreactivity
11 | QVQLVESGGGLVQAGGSLRLSCAASGSIFGSYAMGWNRQAPGKDREFVAGIDQSGSSTYYADSVKGRFTISRDNAKNTVYLQMNSLKPEDTAVYYCAARHRYRTYKMYYWGQGTQVTVSS | high polyreactivity
12 | QVQLVESGGGLVHAGGSLRLSCAASGLTFYYYDMGWYRQAPGKERELVAAITRRGGSTYYADSVKGRFTISRDNAKNTVYLQMNSLKPEDTAVYYCNALSRTVSHEADDYWGQGTHVTVSS | high polyreactivity
13 | QVQLVEYWGALVQAGGTLRLSCAASGRIFGTNALAWNRQAPGKERELEATITRGGGNTYYADSVKGRFTISRDKAKYTVYLQMNSLKPEDTAVYYCAAKFHRFAWYSHYDDWGQGSQVTVSS | low polyreactivity
14 | QVQLVESGGGLVQAGGSLRLSCAASGRTFYYYYTMGWYRQAPGKERELVAAISRSGSTNYADSVKGRFTISRDNAKNSVYLQMNSLKPEDTAVYYCAKETNRVGRYQWGQGTQVTVSS | low polyreactivity
15 | QVQLVESGGGLVQAGGSLRLSCAASGFTFGDYAMGWYRQAPRKERELVAAISKRGGRTFYADSVKGRFTISRDNAKNTVYLQMNSLKPEDTAVYYCAKAGSFDYDYWGQGTQVTVSS | high polyreactivity
16 | QVQLVESGGGLVQAGGRLRLSCAASGSTFILNAMGWYRQAPGKERELVAAISRSGGNTYYADSVKRRFTISRDNAKNTVYLQMNSLKPADTAVYYCAATRRSHYYYWGQGTQVTVSS | high polyreactivity
17 | QVQLVESGGGLVQAGGSLRLSCAASGFTFQYYAMGWYRQAPGKERELVAVISRSGGRTYYADSVKGRFTISRDNGKNTVYLQMISLKPEDTAVYYCNAQSYIPTTETYDYWGQGTQVTVSS | high polyreactivity
18 | QVHLVESGGGLVQAGGSLRLSCAASVFTFNSNAMGWYRQAPGKERELVAAISWSGGSTYYADSVKGRFTISRDNAKNTVYLLMNSLKPEDTAVYYCAKGYRRVYGPFYYWGQGTQLTVSS | low polyreactivity
19 | QVQLVESGGGLVQAGGSLRLSCAASGRTFRTYTMGWYRQAHGKERELVAAITSTGSTYYADSVKGRFTISRDNAMNTVYLQMNSLKPEDTAVYYCNVGRRLRPYRCTRPNLEYYYWGQGTQVTVSS | high polyreactivity
20 | QGQLVESGGGLVQAGGSLRLSCAASGRTFVRNAMGWSSQGPGKEREWVAAISSIGDSTYYAYSLKGRFTISRDNAKNTVYLQLNTLKPEDTAVYYCAAECVTSYYNYYHWGQGTQVTVSS | low polyreactivity
21 | QVQLVESGGGLVQAGGSLRLSCAASGSIFIDNAMGWDRQAPGKEREFVAAISKSGTSTYYADSVKGRFTISRDNAKNTVYLQMNSLKPEDTAVYYCAVRRPRPYSNYYYWGQGTQVTVSS | high polyreactivity
22 | QVQLVESGGGLVQAGGGLRLSCAASGSIFRSNTMGWYRQAPGKERELVAGISYSGGSTYADSVKGRFTISRDNAKNTVYLQMNSLKPEDTAVYYCARRVYSYDVLYFSYYYWGQGTQVTVSS | low polyreactivity

Row | Sequence | polyreactivity (PSR sort gate)
23 | QVQLVESGGGLVQAGGSLRLSCAASGFTFARYTMGWYRQAPGKERELVAAISSRGSSTYYADSVKGRFTISRDNAKNTVYLQMNSLKRVDTAVYYCAAPPRYGYDYWGHGTQVTVSS | high polyreactivity
24 | QVQLVESGGGLVQAGGSLRLSCAASGSTFYPYAMGWYRQAPGKEREFVAGISRSGGTTYYADSVKGRFTISRDNAKNTVYLQMNSLKPEDTAVYYCAVQIPYVYWSYDYWGQGTQVTVSS | low polyreactivity
25 | QVQLVESGGGLVQAGGSLRLSCAASGFTFIYYAMGWYRQAPGKERELVAAISRVDSTYYADSVKGRFTISSDNAKNTIYLQMNRLKPEDTAVYYFAAASQVRRDHGYWGQGTQVTVSS | low polyreactivity
26 | QVQLVESGGGLVQAGGSLRLSCAASGRTFSHNAMGWYRQAPGKERELVATINSGGSTYADSVKGRFTISRDNAKNTVYLQMNSLKPEDTAVYYCNAAHGSRAFFGGYDYWGQGTQVTVSS | high polyreactivity
27 | QVQHVESGGGLVQAGGSLRLSCAASGRTFITYAMGWYRQGPGKERELVATISGGGGTNYADSVKGRFTISRDNAKNTVYLQMNSLKPEDTAVYYCNKRAWYVYTHFDYWGLGTQVTVSS | low polyreactivity
28 | QVQLVESGGGLVQAGGSLRLSCAASGSTLNRNAMGWYRQAPGKERDLVAAIRVSGGSTYYADSVKGRFTISRDNAKNTVYLQMNSLKPEDTAVYYCATRYVRARWYGYWGQGTQVTVSS | high polyreactivity
29 | QVQLVESGGGLVQAGGSLRLSCAASGRIFRGYAMGWYRQAPGKERELVAAITKRGGSTYYADSVKGRFTISRDNAKNTVYFQMNSLKPEDTAVYYCAAYLPGWELREYGYWGQGTQVTVSS | high polyreactivity
30 | QVQLVESGGGLVQAGGSLRLSCAATGRTLVLYAMGWYRQAPGKERELVAAITWSGDSTYYADSVKGRFSISRDNAKYTVYLQMKSLKPEDTAVYYCAATYLNAKRGLRYDYWGQGTQVSVSS | low polyreactivity
31 | QVQLVESGGGLVQAGGSLRLSCAASGYIFGLYAMGWYRQAPGKERELVASITGGGSTYADSVKGRFTISRDNAKNTVYLQMISLKPEDTAVYYCAAESTVRPYEHSGDYWGQGTQVTVSS | low polyreactivity
32 | KVQLVESGGGLVQAGGSLRLSCAASGLTFSYYAMGWYRQAPGKERELVAAITRSGTRTYYADSVKGRFTISRDNAKNTVYLQMNSLKPEDTAVYYCARYLRGDFQQGEHWGQGTQVTVSS | high polyreactivity
33 | QVQLVESGGGLVQAGGSLRLSCAASGSTFVGYAMGWYRQAPGKERELVAAISKSGGRTYYADSVKGRFTISRDNAKNTVYLQMNSLKPEDTAVYYCAAYFTRYDFRWHTYYYWGQGTQVTVSS | low polyreactivity
34 | QVQLVESGGGLVQAGGSLRLSCAASGFTYTYAMGWYIQAPGKERELVAAISKSGGRTYYADSVKGRFTISRDNAKNTVYLQMNSLKPEDTAVYYCAADYSSTYDYWGQGTQVTVSS | high polyreactivity
35 | QVQLVESGGGLVQAGGSLRLSCAASGITFNRYVMGWYRQAPGKERELVAANSRTGGSTYYADSVKGRFTISRDTGKNTVYLQMNILKPEDTAVYYCAAATSPGIYDYWGQGTQVTVSS | high polyreactivity
36 | QFQLVESGGGLDQAGGSLRISCAASGSTFSYNAIGWYRQAPGKERELVAAITSRGGSTRYADSVKGRFTISRDNAKNTVYLQMNSLNPEDTAVYYCARPYSYYPYSTVNYWGQGTQVTVSS | high polyreactivity
37 | QVQLVESGGGLVQAGGSLRLSCAASGFIFSPYAMGWYRQAPGKERELVAAISSGVGTRTYYADSVKGRFTISRDNAKNNVYLQINSLKPEDTAVYYCAARIPAWRAAERGGYWGQGTQVTVSS | high polyreactivity
38 | QVQLVESGGGLVQAGGSLRLSCAASGSTFHSYVMGWYREAPGIERELVAAITSRGGSTNYADSVKGRFTISRDNAKNTVYFQMNSLKPEDTAVYYCAAEWLYPLDGGYPRPMDYWGQGTQVTVSS | low polyreactivity
39 | QVQLVESGGGLVQAGGSLRLSSPASGFTFLAYAMGWYRQAPGKERELVAAISASSGRTRYADSVKGRFTISRDNAKNTVYLQMISLKPEDTAVYYCAARYRGTYRRDYWGQGTQVTVSS | high polyreactivity
40 | QVQLVESGGGLVQAGGSLRLSCAASGIIFYYYDMGWYRQAPGKERELVAAISWGAGDTYYADSVKGRFTISRDNAKNTVYLQMNSLKPEDTAVYYCAAEFSRSDYQEYDYWGQGTQVTVSS | low polyreactivity
41 | QVQLVESGGGLVQAGGSLRLSCAASGNTFAVNAMGWYRQAPGKERELVAAISKRGGRTYYADSVKGRFTISRDNAKNTVYLQMNSLKPEDTAVYYCAADLSNSMDYWGQGTQVTVSS | high polyreactivity
42 | QVQLVESGGGLVQAGGSLRLSCAASGSIFGSNAMGWYRQAPGKERELVAAITSRGGSTYYADSVKGRFTISRDNAKNTVYLQMNSLKPEDTAVYYCAADYQSVGGAEYDYWGQGTQVTVSS | high polyreactivity
43 | QVQLVESGGGLVQAGGSLRLSCAASGFIFNYYAMGWYIQAPGKERELVAAISTNGGSTYYADSVKGRFTISRDNAKNTVYLQMNSLKPEDTAVYYCAARSYGVSGRYYRYTFGMDYWGQGTQVTVSS | high polyreactivity
